This data set concerns wild-type and mutant Ndi1. In words: Kinetic parameters of the oxidoreductase activity of wild-type and mutant Ndi1 for ubiquinone-1. Format: biochemical, Saccharomyces cerevisiae. As to conditions: for Km: apparent Km for ubiquinone-1 (2.4–60 µM); for Km / Vmax: NADH fixed at 100 µM; for increase of Km value for ubiquinone-1 in comparison to wild-type enzyme / Vmax, % of the wild-type activity: relative to wild-type Ndi1; for Vmax: ubiquinone-1 as substrate (2.4–60 µM). Here is the method: This unique structure appears to be related to the competitive nature of the inhibition of Ndi1 oxidoreductase activity by stigmatellin. It is therefore hypothesized that L444, I459, R460, and S461, which interact with stigmatellin at the STG-1a site, are also involved in the binding of the substrate ubiquinone (Fig. 5). This hypothesis was evaluated by examining the effects of mutations of the proximal L444 and I459 on the kinetics of the enzymatic reaction of Ndi1. The effect of the mutation of S484, which specifically interacts with stigmatellin at the STG-1b site, was examined as a control. Furthermore, the effects of mutations of W63, P92, A393, Q394, H397, L447, Y482, M485, and L487, which interact with the aromatic head group of stigmatellin at the STG-1a and STG-1b sites, were also examined. Moreover, to investigate the functional role of the STG-2 site in ubiquinone binding, a mutation was also introduced to R479.
NADH-ubiquinone oxidoreductase activity was measured as described previously. In brief, the reaction was started by adding 100 µM NADH to the enzyme mixture containing 10 ng/mL Ndi1, 50 mM sodium phosphate (pH 6.0) and 1 mM EDTA, which was pre-incubated with various concentrations of ubiquinone-1 for 1 min. The decrease in 340 nm absorbance was measured as an indication of the oxidation of NADH (ε = 6.22 mM^−1 cm^−1) with a Shimadzu UV2000 spectrophotometer (Kyoto, Japan). The enzymatic activity obtained with 100 µM NADH and 60 µM ubiquinone-1 in the absence of any inhibitors (100% activity) catalyzed the oxidation of 1,890 μmol NADH/min/mg Ndi1. The concentrations of inhibitors required to obtain the half-maximal inhibition (IC50) were estimated by non-linear regression dose-response curves. The inhibition mode of each inhibitor for ubiquinone-1 was determined by the intersection point in double-reciprocal plots (Fig. 2B–E). To objectively evaluate the inhibition mode, the data of the inhibition kinetics were fitted to the Eq. (1) of mixed model inhibition in the Prism6 software program (GraphPad Software, Inc., La Jolla, CA).1 V=Vmax[S]/[S](1+[I]/αKi)+Km(1+[I]/Ki) […]
To determine the kinetic parameters of wild-type and mutant enzymes for ubiquinone-1, the NADH oxidation rates were measured in a fixed concentration of NADH (100 µM) and different concentrations of ubiquinone-1 (2.4–60 µM). Apparent Km and Vmax values were obtained by fitting a data set of initial velocity versus substrate concentration to the Michaelis-Menten model equation in the Prism6 software program.
Site-directed mutagenesis. The amino acid replacements of Ndi1 were basically performed with PrimeSTAR mutagenesis basal kit (Takara, Japan) using pET16b(NDI1-m) (2) and a synthetic oligonucleotide primer set (Table S2). The mutagenesis of H397 was performed with a QuikChange II XL site-directed mutagenesis kit (Stratagene, CA). Each mutation was confirmed through DNA sequencing (DNA sequencing service, Eurofins). The purification procedure of wild-type and mutant enzymes, used for the determination of the kinetic parameters (Table 2), was basically the same as the above procedure, without the replacement of the detergent from Triton X -100 with DDM. After washing the enzyme with buffer A containing 0.1% Triton X-100 and 15 mM histidine, 0.02% Triton X-100 was added to all buffer as a substitute for DDM. With the exception of 5 mutants containing L444D, I459A, […]
yield of the wild-type enzyme. […]

One may read the Km as the concentration of substrate that gives half-maximal velocity. For orientation: Vmax means the rate approached at saturating substrate.

B1: L444D: recombinant Ndi1 mutant L444D (protein, UniProt P32340 27-513, looked up, variant L444D)
Rotenone-insensitive …: STGVENSGAGPTSFKTMKVIDPQHSDKPNVLILGSGWGAISFLKHIDTKKYNVSIISPRSYFLFTPLLPSAPVGTVDEKSIIEPIVNFALKKKGNVTYYEAEATSINPDRNTVTIKSLSAVSQLYQPENHLGLHQAEPAEIKYDYLISAVGAEPNTFGIPGVTDYGHFLKEIPNSLEIRRTFAANLEKANLLPKGDPERRRLLSIVVVGGGPTGVEAAGELQDYVHQDLRKFLPALAEEVQIHLVEALPIVLNMFEKKLSSYAQSHLENTSIKVHLRTAVAKVEEKQLLAKTKHEDGKITEETIPYGTLIWATGNKARPVITDLFKKIPEQNSSKRGLAVNDFLQVKGSNNIFAIGDNAFAGLPPTAQVAHQEAEYLAKNFDKMAQIPNFQKNLSSRKDKIDLLFEENNFKPFKYNDDGALAYLGSERAIATIRSGKRTFYTGGGLMTFYLWRILYLSMILSARSRLKVFFDWIKLAFFKRDFFKGL
Turning to B1, the Km stood at 37.6 ± 3.9 µM, the “increase of Km value for ubiquinone-1 in comparison to wild-type enzyme” value (shortened to “increase of Km value”) amounted to 1.7 fold and the Vmax worked out at 447 ± 6.8 µmol/min/mg.

B2: I459A: recombinant Ndi1 mutant I459A (protein, UniProt P32340 27-513, looked up, variant I459A)
Rotenone-insensitive …: STGVENSGAGPTSFKTMKVIDPQHSDKPNVLILGSGWGAISFLKHIDTKKYNVSIISPRSYFLFTPLLPSAPVGTVDEKSIIEPIVNFALKKKGNVTYYEAEATSINPDRNTVTIKSLSAVSQLYQPENHLGLHQAEPAEIKYDYLISAVGAEPNTFGIPGVTDYGHFLKEIPNSLEIRRTFAANLEKANLLPKGDPERRRLLSIVVVGGGPTGVEAAGELQDYVHQDLRKFLPALAEEVQIHLVEALPIVLNMFEKKLSSYAQSHLENTSIKVHLRTAVAKVEEKQLLAKTKHEDGKITEETIPYGTLIWATGNKARPVITDLFKKIPEQNSSKRGLAVNDFLQVKGSNNIFAIGDNAFAGLPPTAQVAHQEAEYLAKNFDKMAQIPNFQKNLSSRKDKIDLLFEENNFKPFKYNDLGALAYLGSERAIATARSGKRTFYTGGGLMTFYLWRILYLSMILSARSRLKVFFDWIKLAFFKRDFFKGL
In the case of B2, the Km is 40.2 ± 4.1 µM, the “increase of Km value” value is 1.8 fold and the Vmax was found to be 2.90 ± 0.0042 µmol/min/mg.

B3: I459W: recombinant Ndi1 mutant I459W (protein, UniProt P32340 27-513, looked up, variant I459W)
Rotenone-insensitive …: STGVENSGAGPTSFKTMKVIDPQHSDKPNVLILGSGWGAISFLKHIDTKKYNVSIISPRSYFLFTPLLPSAPVGTVDEKSIIEPIVNFALKKKGNVTYYEAEATSINPDRNTVTIKSLSAVSQLYQPENHLGLHQAEPAEIKYDYLISAVGAEPNTFGIPGVTDYGHFLKEIPNSLEIRRTFAANLEKANLLPKGDPERRRLLSIVVVGGGPTGVEAAGELQDYVHQDLRKFLPALAEEVQIHLVEALPIVLNMFEKKLSSYAQSHLENTSIKVHLRTAVAKVEEKQLLAKTKHEDGKITEETIPYGTLIWATGNKARPVITDLFKKIPEQNSSKRGLAVNDFLQVKGSNNIFAIGDNAFAGLPPTAQVAHQEAEYLAKNFDKMAQIPNFQKNLSSRKDKIDLLFEENNFKPFKYNDLGALAYLGSERAIATWRSGKRTFYTGGGLMTFYLWRILYLSMILSARSRLKVFFDWIKLAFFKRDFFKGL
B3: the Km was determined as 75.6 ± 12 µM, the “increase of Km value” value is on record as 3.3 fold and the Vmax was 58.0 ± 1.5 µmol/min/mg.

B4: Q394G: recombinant Ndi1 mutant Q394G (protein, UniProt P32340 27-513, looked up, variant Q394G)
Rotenone-insensitive …: STGVENSGAGPTSFKTMKVIDPQHSDKPNVLILGSGWGAISFLKHIDTKKYNVSIISPRSYFLFTPLLPSAPVGTVDEKSIIEPIVNFALKKKGNVTYYEAEATSINPDRNTVTIKSLSAVSQLYQPENHLGLHQAEPAEIKYDYLISAVGAEPNTFGIPGVTDYGHFLKEIPNSLEIRRTFAANLEKANLLPKGDPERRRLLSIVVVGGGPTGVEAAGELQDYVHQDLRKFLPALAEEVQIHLVEALPIVLNMFEKKLSSYAQSHLENTSIKVHLRTAVAKVEEKQLLAKTKHEDGKITEETIPYGTLIWATGNKARPVITDLFKKIPEQNSSKRGLAVNDFLQVKGSNNIFAIGDNAFAGLPPTAGVAHQEAEYLAKNFDKMAQIPNFQKNLSSRKDKIDLLFEENNFKPFKYNDLGALAYLGSERAIATIRSGKRTFYTGGGLMTFYLWRILYLSMILSARSRLKVFFDWIKLAFFKRDFFKGL
B4: the Km was found to be 30.8 ± 3.4 µM; the “Vmax, % of the wild-type activity” value is 43%; the “increase of Km value” value came out at 1.4 fold; the Vmax came to 452 ± 8.1 µmol/min/mg.

B5: A393G: recombinant Ndi1 mutant A393G (protein, UniProt P32340 27-513, looked up, variant A393G)
Rotenone-insensitive …: STGVENSGAGPTSFKTMKVIDPQHSDKPNVLILGSGWGAISFLKHIDTKKYNVSIISPRSYFLFTPLLPSAPVGTVDEKSIIEPIVNFALKKKGNVTYYEAEATSINPDRNTVTIKSLSAVSQLYQPENHLGLHQAEPAEIKYDYLISAVGAEPNTFGIPGVTDYGHFLKEIPNSLEIRRTFAANLEKANLLPKGDPERRRLLSIVVVGGGPTGVEAAGELQDYVHQDLRKFLPALAEEVQIHLVEALPIVLNMFEKKLSSYAQSHLENTSIKVHLRTAVAKVEEKQLLAKTKHEDGKITEETIPYGTLIWATGNKARPVITDLFKKIPEQNSSKRGLAVNDFLQVKGSNNIFAIGDNAFAGLPPTGQVAHQEAEYLAKNFDKMAQIPNFQKNLSSRKDKIDLLFEENNFKPFKYNDLGALAYLGSERAIATIRSGKRTFYTGGGLMTFYLWRILYLSMILSARSRLKVFFDWIKLAFFKRDFFKGL
In the case of B5, the Michaelis constant (Km) came out at 32.5 ± 1.9 µM; the “Vmax, % of the wild-type activity” value worked out at 83%; the “increase of Km value” value turned out to be 1.4 fold; the Vmax turned out to be 882 ± 7.6 µmol/min/mg.

B6: H397A: recombinant Ndi1 mutant H397A (protein, UniProt P32340 27-513, looked up, variant H397A)
Rotenone-insensitive …: STGVENSGAGPTSFKTMKVIDPQHSDKPNVLILGSGWGAISFLKHIDTKKYNVSIISPRSYFLFTPLLPSAPVGTVDEKSIIEPIVNFALKKKGNVTYYEAEATSINPDRNTVTIKSLSAVSQLYQPENHLGLHQAEPAEIKYDYLISAVGAEPNTFGIPGVTDYGHFLKEIPNSLEIRRTFAANLEKANLLPKGDPERRRLLSIVVVGGGPTGVEAAGELQDYVHQDLRKFLPALAEEVQIHLVEALPIVLNMFEKKLSSYAQSHLENTSIKVHLRTAVAKVEEKQLLAKTKHEDGKITEETIPYGTLIWATGNKARPVITDLFKKIPEQNSSKRGLAVNDFLQVKGSNNIFAIGDNAFAGLPPTAQVAAQEAEYLAKNFDKMAQIPNFQKNLSSRKDKIDLLFEENNFKPFKYNDLGALAYLGSERAIATIRSGKRTFYTGGGLMTFYLWRILYLSMILSARSRLKVFFDWIKLAFFKRDFFKGL
In the case of B6, the Km came to 35 ± 2.7 µM; the “Vmax, % of the wild-type activity” value stood at 44%; the “increase of Km value” value is 1.5 fold; the Vmax came out at 463 ± 17 µmol/min/mg.

B7: W63F: recombinant Ndi1 mutant W63F (protein, UniProt P32340 27-513, looked up, variant W63F)
Rotenone-insensitive …: STGVENSGAGPTSFKTMKVIDPQHSDKPNVLILGSGFGAISFLKHIDTKKYNVSIISPRSYFLFTPLLPSAPVGTVDEKSIIEPIVNFALKKKGNVTYYEAEATSINPDRNTVTIKSLSAVSQLYQPENHLGLHQAEPAEIKYDYLISAVGAEPNTFGIPGVTDYGHFLKEIPNSLEIRRTFAANLEKANLLPKGDPERRRLLSIVVVGGGPTGVEAAGELQDYVHQDLRKFLPALAEEVQIHLVEALPIVLNMFEKKLSSYAQSHLENTSIKVHLRTAVAKVEEKQLLAKTKHEDGKITEETIPYGTLIWATGNKARPVITDLFKKIPEQNSSKRGLAVNDFLQVKGSNNIFAIGDNAFAGLPPTAQVAHQEAEYLAKNFDKMAQIPNFQKNLSSRKDKIDLLFEENNFKPFKYNDLGALAYLGSERAIATIRSGKRTFYTGGGLMTFYLWRILYLSMILSARSRLKVFFDWIKLAFFKRDFFKGL
For the molecule B7, the Km worked out at 53.1 ± 6.4 µM; the “Vmax, % of the wild-type activity” value is 137%; the “increase of Km value” value was 2.3 fold; the Vmax is 1450 ± 27 µmol/min/mg.
